Results on 34 sequences are retold here after the NTF2 design screens of Basanta et al. (2020).

This data set in a line: protease stability score; higher = more stable; yeast display proteolysis, trypsin and chymotrypsin.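 Also: relative to predicted unfolded state with 0 unfolded-like and 1 meaning tenfold more protease.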
“DEEEKMDELLIKIWLKVNETGDEDTFSKLLDPDAKVIVGDKVLHGREEIEELMRQLRVDRIHVRRHKAVNGQIHQDWELRGTVNGREIRTETRVHTIKVNGQWVIHRLKIE”: the protease stability score stood at 1.49. As to “DKEDEDIKHLVDRIIHFWETGDFESLLKNVDPNARVEEIFNGKKYHSHGREEFERTLQEWLDRYKNVTIHIREVRMFNGVAIIHAELLIGDKRHEVHLHWFIYDGVLRHVRIQFE”, the protease stability score worked out at 1.49.

Regarding “SEEQHHVEKVLWDFSHALMTGDWETVEDLVDPNVRIHINGKDFHGREEFHRLVREIRVHVEINLKSVEHIDGQATADTDVIVHLDVGDKQIDRRTRTEVIQQKFDGKWLIHTIIHR”, the protease stability score worked out at 0.956. To “DDKDEHSYRVAEDVVEAWLTGDWRWLMDMFDPHVRMDIDIDGVDIHLHGRHELARYILEEHQKYKNITVHIEHIRVQGDFIEINTSVRIDGQRHDRRLIIRIINGKIEEHQIHVR” belongs 1.01. Sequence “DEETRDIIHILKLLWDAIRTGDEEAIRRLLDPDMRIQVGDKEIHGREEFLKEISHWRYDLESFHIKHVDVINGVAIIHLHIVGRFHYDGRTYHDSYEEDVFIFKVNGRWHFHQIKYR” had a protease stability score of 1.84. To “DEDDEFERLFWKKWVDALRTGNEEIIRKMVDPNVKIVFNGKELHGREAVDIVLKRIDHIDDIKLRHSRVVDGRVEITTKIHMKVGDKSIDSETHMSFEKIDGRWIITEMFFV” belongs 2.59; to “DEEHKFQHDISIFFMKLIETGDEDTLIDMADPNARSEINGKEVHGMEDAYKWWIDFLRQMGIKHLHVETFHVVNGQTKVHSRVHVGDKEFEVEIRLIIINGRLHEIEIIVRTR”, 1.21.

Sequence “DEEERQLEEFLELLVEALRTGDWHTLMRMLDPNVKVHIDGKDIHGREEHIRLHIEQWERLGYERIEFRVRIDEVHFINGVVEVDYTQIDQFDGQRLQLRVRIFLLKFDGRWSIDKVVFR” registered a protease stability score of 2.46.

Regarding “SEDDERMERLTRILLEALETGDEDALRELIDPNARVDVNGVRDHGWKEVRKLLKELGVDHIKIHDHHIQGEKSRIDGEIHFNGKSERVTILWIMINGRVKFMSVKHT”, the protease stability score was found to be 1.79. To “DEHEHVVERMARIQYKEMVTGDEELWYHLADPRVRYEIGDKEIIGREEVFRFIIEHKRDLGISKIDVRIRDIDLQGEWAIIDGTININGRKLETTIHLLVVDGRLKTFSLEIK” belongs 1.33. To “HEHEEEVRSMTRLFLHAFVTGDWRTIVELIDPNVRTWFNGKDDHGRESLFKNLIRVLEEFGADHVDITIEEMEVQGNKVRVKMIIEVIVGDKDLRLSINQQAYKVDGRWRVKEIIIH” belongs 0.725; to “DEEERRTREFTEHVLHAEETGDFDSFVELADPNVRMRIGDKEIHGMEMVAKWLVHMRIKHFNLHRIEIQGEKVHIDGEIKGRFNGRDTETKVIFHIVVIDGRLHSQIIQIH”, 1.54; to “SEDDEEKEEYLRKELEAHRTGDWRLFRELIDPHTKIHINGVLFVGWKDATRFFKEIRVKDHKVHRVRNIDGRIEMDGELNIDIDGREDIMIVHIRAKKVNGRWIVDSVEFR”, 1.19.

Regarding “SEEEELFEIAIRIFLHILHTGNEEDFHRFADPNMRMIIGDKEHHGWEEVFKWFEFVFRHARIKDTEIKSVRIINGRVHNEGRVNININGVEVIKEVHLVSEKVDGKWVLKRVEIR”, the protease stability score came to 1.52. To “DESRKAMRIALEIIEHMWRTGDETLRHELADPNTRVRIGDKELHGREELIRLWKELGFKHIEEIDLESIFVQGDKIHIDTRVHGEINGRHEVMRVVLIIHKIDGKWLIHSESHR” belongs 1.49. To “DDRERESEEALRLFIETLETGDEHWLKRLMDPNARLHQGEKTIHGMDIFSTWVVEARLKHYHLERVHIQGDKMDVESHVDGHVNGQRLKVQLIFHSLKIDGRWLVKHIIVH” belongs 1.4. To “DHKDELNEHIMKVWIHFLETGDEEFLYDLMDPHARLDFNGREIHGREILYEFWKRWNKRFPNRIDFLDSVRVIGDKVEMDTTLRIDGVRHETEIRIHVYDGKLKHIEYHIR” belongs 1.4; to “SEEERTQTLAMKIIWDVLLTGDWKELFDNMDPHARMEINGRKFHGREEIIRHLRELHNKLGIDRVESHLHSVHYVDGVIHVDIHLHYNGKDERIEIIAMKYNGRWTLTEVNYREE”, 2.13; to “DEWEKLYEIALEIFLEVFKTGNEEMFLKQADPHVRLDVGDKHYHGREHVVKFLIDELKRVKNLKVSSEHESFVGDYAHMHIDLDIDGRRVDVEIVSLKVDGKWVLREVRLH”, 1.34. In turn, “DEEEEFLRLILETLRHAAETGDWHILNRLLDPDARIVIGDKEIHGREKVQHEFRRIDHYQWHHIILDRVHIYDGRIELHGQVEEELNVDGQRIRRLTDTHFVIVKVDGQWKIHTIEIR” yielded a protease stability score of 2.22. To “SEDEEIVRHFLEIWIKILKTGDWHSMERLVDPHAKYENEHEVDHGRDSARRFVDELRVTEFRVESVKTQGDKATVHTRMVVHFNGKRIDTETRLHIHKVDGRWVVEIIIVN” belongs 1.43. To “DEEERIAKVMLKIVEKDLHTGNFETLFHLMDPHMRLEYGDKHHHGREEAYRELLEIWEELGANHYHITHRHVRLIGDKIRIHIYSIVRFNGREHHLHIDLIVTKIDGRWVMHRIIIELK” belongs 0.723; to “NELHKEYRHMLHILRHIIETGNERALEENMDPNYRIEIGDKRIHGREKALEFWWRLNKRVDHLELHDEHINLFEGHVEIDGRLILKQGEYIEESKTTIFIVKVNGRWVLRSFRVE”, 1.86. To “TEEERDTKIAVDLFEEYSRTGNEDNMRELADPNVRLKINGVDYVGWKHMTKLLNHWRVKTVNIRHVEIQGDYARSDVEEEVLINGKEDRRTSRLILFKVNGRWIIKSLEFD” belongs 1.28. As for “TEEEDLIRRQIHELRETLQTGDEHLLNWLLDPHARMEIDGQEVWGREEIAKFLHRFKNITVLFNDMIVQGDKVDIDGQIEFNGRRRRARLISDKVDGQWIDHDIIII”, the protease stability score was 1.3. As for “SDDEHAAHLIIFIWTFALITGDEQTLKELLDPNVKNEFNGVELHGREQVEEHVRRYDWVTDFKFRVDDIQHQGEKIILDGTLVITMEFDGRREDIKSRFILIVRKVDGKWHLERLIIV”, the protease stability score was found to be 1.86. To “SEEHRESEEASHEFRRLWETGDEKDFLKLADPHTRLEVNGKDIHGMREVTEFMKRRLHHLGFKHSDVKHEHVEVFDGKVRIEMIIEIHVNGVPLHTEVLVILTKINGKWRIHSITEEIK” belongs 0.69; to “DEREEEAERIMRLFQEFERTGDEDMLRHLVDPDARWVVGDKFQHGWHHFHRLLHHLRVRDLKPKSLHIDVQGDKVEVILHQEMDGEINGKRVIYHVVVIIIVNKFNGRWRNETVEVRFH”, 0.843; to “DEDSEQARKFTELLFESIRTGDWKSLERLFDPNTRLEVGEFEHHGMEEATKFLIELRLEDFHIHSTKIDIQGEWIHIRLDGVERGYIGDKKRDTRSHIRLDNLKINGRWINQRLIIEIR”, 1.13.

“DEEEHWAKEFLKIESEAMMTGDEESLIELIDPDARIQIGDKKYHGMEFVKYLFEQERKKLGIERVHVEFELKEIHYQGNYMIVDGIIRRSYGDKTETRRVIIYLIKFDGQWVIESIQFL”: the protease stability score was found to be 0.863.

For “DEDKEWAHRILEHFLDNLRTGNEERLEELADPNTRVVIDGQEEHGMHVFNTLHKELRIDRIHLTSWDIQGDKLHLDVRVDGTFNGQREVTRVHIYFRVVNGRVKDIQIHVI”, the protease stability score was 1.8. To “DREEHELLHAIERWLKAEETGDEHELKKLADPHTRTHIRIGDKHIERHGREDMIKVFRELGFKHHHMRSIEIQGDYVHVRGENRFDGQHITLILIFHKFDGRWILREVEVHIR” belongs 1.41; to “SEEEQEAIENLHQYIEAIKTGDEDKLRDLFDPNAIIHFDGREIHGRHVFLKKLRHLWLDLKHFHIQHVEPYNGRVEIHGFQHTSVDIDGVRSRRDEHVLIEIIKINGKWKIKRIEWI”, 1.68. Take “DEDTEKAEKFVHSFLMAMLTGDEEELWKYLDPRVRTIIGDKHYHGREQTKKAWEELGIDHSDVERFHVHIQGDKVEVHIDLRVHVNGRSYDVHIILIVTKINGKWYIDTLIFRKV”: the protease stability score turned out to be 1.44.
